The target in experiment [1] is human Nogo-A d20plus region (human aa position 543-866), recombinantly produced in E. coli (human) (UniProt Q9NQC3). Description: ELISA, coated d20plus (human, as read from the context), internal standard. (ELISA stands for enzyme-linked immunosorbent assay.)
A further experiment deals with rat Nogo-A (rat) (UniProt Q9JK11). The experiment is described as follows: cell-based or functional assay.
Chain of rat Nogo-A (rat) (Q9JK11 whole entry): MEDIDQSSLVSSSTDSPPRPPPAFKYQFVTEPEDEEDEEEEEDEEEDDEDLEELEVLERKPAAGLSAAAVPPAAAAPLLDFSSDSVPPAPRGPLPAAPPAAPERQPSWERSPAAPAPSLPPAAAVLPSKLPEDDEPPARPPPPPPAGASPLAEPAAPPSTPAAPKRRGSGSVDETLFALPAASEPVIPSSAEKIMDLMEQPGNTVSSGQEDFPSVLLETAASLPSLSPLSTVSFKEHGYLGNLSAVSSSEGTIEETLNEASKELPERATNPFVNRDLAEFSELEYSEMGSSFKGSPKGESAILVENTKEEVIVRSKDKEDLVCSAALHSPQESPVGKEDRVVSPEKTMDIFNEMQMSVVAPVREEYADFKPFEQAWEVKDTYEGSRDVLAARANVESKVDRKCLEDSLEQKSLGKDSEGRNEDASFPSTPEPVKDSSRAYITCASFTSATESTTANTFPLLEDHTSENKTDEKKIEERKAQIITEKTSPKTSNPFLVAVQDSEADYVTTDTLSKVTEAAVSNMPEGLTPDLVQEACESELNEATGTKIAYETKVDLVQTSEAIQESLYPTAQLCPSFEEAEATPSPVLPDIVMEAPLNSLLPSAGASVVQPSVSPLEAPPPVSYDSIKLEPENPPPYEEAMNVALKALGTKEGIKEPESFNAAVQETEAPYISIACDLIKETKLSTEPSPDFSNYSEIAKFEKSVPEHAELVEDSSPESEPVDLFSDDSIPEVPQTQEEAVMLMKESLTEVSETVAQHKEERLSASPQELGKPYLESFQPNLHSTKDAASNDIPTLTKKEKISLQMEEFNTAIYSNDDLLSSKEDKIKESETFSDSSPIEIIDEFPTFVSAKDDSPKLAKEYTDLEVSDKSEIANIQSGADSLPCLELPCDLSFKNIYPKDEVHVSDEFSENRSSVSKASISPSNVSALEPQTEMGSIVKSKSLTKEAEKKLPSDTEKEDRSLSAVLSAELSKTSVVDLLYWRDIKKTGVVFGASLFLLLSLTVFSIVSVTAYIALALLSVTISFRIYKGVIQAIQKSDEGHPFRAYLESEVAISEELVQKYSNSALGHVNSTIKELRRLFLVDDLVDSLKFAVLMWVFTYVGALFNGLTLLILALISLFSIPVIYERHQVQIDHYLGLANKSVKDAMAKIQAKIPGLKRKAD

Chain of human Nogo-A d20plus region (human aa position 543-866), recombinantly produced in E. coli (human) (Q9NQC3 543-866 limits assumed): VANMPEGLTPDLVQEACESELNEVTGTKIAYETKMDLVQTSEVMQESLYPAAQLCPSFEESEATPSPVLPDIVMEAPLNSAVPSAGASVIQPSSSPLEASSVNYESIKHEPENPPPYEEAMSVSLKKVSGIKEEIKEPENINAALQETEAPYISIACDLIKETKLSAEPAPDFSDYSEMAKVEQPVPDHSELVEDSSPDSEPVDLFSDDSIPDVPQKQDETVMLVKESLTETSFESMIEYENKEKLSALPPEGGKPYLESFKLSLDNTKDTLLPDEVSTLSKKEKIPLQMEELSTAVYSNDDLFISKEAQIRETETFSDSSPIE

Consider “murine monoclonal anti-Nogo-A antibody 11C7”, for which the EC50 (usually the concentration at which the effect is half-maximal) in experiment [1] was 0.14 nM. Moreover, in the experiment with rat Nogo-A (rat), the IC50 for stimulating neurite outgrowth of N1E-115 cells in presence of rat CNS extract was found to be 19.3 nM.
